Assay results published in patent US20120277143A1 (Janssen / Centocor, published 2012).
Blank lines part the entries; values can stand above or below the binder they belong to.

Legend:
human IL4 [1] = biological target: T1, human IL4 (human, UniProt P05112 25-153, biotinylated in the SPR and competition assays (sites not given)); test: cell-based or functional assay
T1 sequence: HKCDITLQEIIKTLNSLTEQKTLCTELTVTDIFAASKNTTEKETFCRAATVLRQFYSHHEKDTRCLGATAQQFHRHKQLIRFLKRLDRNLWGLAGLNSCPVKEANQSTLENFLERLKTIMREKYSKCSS

human IL4 [2] = biological target: T1, human IL4; test: binding to recombinant IL4; kinetic method not restated
human IL4 [3] = biological target: T1, human IL4; test: cell-based or functional assay; remark: listed apart in the source
human IL4 [4] = biological target: T1, human IL4; test: cell-based or functional assay; remark: listed apart in the source
human IL4 [5] = biological target: T1, human IL4; test: SPR ProteOn, biotin-IL4 on neutravidin chip, 1:1 fit
Method: Purified binders selected as “hits” were ranked by their affinity on a ProteOn XPR-36 instrument (Bio-Rad). ProteOn is an optical biosensor instrument that measures protein-protein interactions in real time, based on Surface Plasmon Resonance technology similar to Biacore (GE). A rapid experimental protocol was performed as follows: On a GLC sensor chip (Bio-Rad), Neutravidin (Thermo Scientific) was covalently immobilized to a density of >5000 RU using amine coupling chemistry as described by the manufacturer. On one flow cell, biotinylated IL4 (Peprotech) was immobilized to a level of 250 RU, while another flow cell was used as reference, with neutravidin immobilized only. […] The retrieved values were used to rank the AR proteins by their affinity.

human IL4 [6] = biological target: T1, human IL4; test: Luminex competition, 67 pM biotin-IL4 binding to IL4RA-Fc beads
Method: For biotinylation of IL4, recombinant human IL4 (Peprotech) was biotinylated at a 4:1 ratio using EZ-Link NHS-LC-Biotin (Pierce, #21336) for 2 hours at RT. The protein was dialyzed in PBS overnight to remove excess biotinylation reagent. Competition binding for cynomologous IL4 (SEQ ID NO: 5) was performed using the isolated protein biotinylated in the same manner.
AR protein inhibition of IL4 binding to IL4 RA was assessed using IL4 RA-Fc (R&D Systems), comprising the Gly24-His232 which represents the ECD (SEQ ID NO: 5) fused to a human IgGl-Fc and therefor a disulfide linked homodimer. The protein was conjugated to carboxylated Luminex microspheres according to the manufacturer's protocol. For neutralization experiments, 5000 IL4RA-Fc conjugated beads in 50 μl were added to each well of a 96-well filter plate (Millipore). Biotinylated human IL4 was mixed with an appropriate dilution of AR protein in Luminex Assay Buffer (PBS, 1% BSA, pH 7.4) to give a final concentration of 67 pM IL4. The plate was incubated for 1 hour at RT in the dark on a plate shaker, set to shake vigorously to avoid bead aggregation. The plate was washed twice with 150 μl of wash buffer (PBS, 0.1% BSA, pH 7.4, 0.05% Tween-20) using a vacuum manifold followed by the addition of 50 μl of Streptavidin PE at 25 μg/ml and incubated at RT for 20 minutes. The plates were washed again and 150 μl of sheath fluid was added and the plate was placed on the shaker for 5 minute. Plates were read using a Luminex® 100 system; data were plotted as a function of AR protein concentration. IC₅₀ values were determined by fitting the data to the equation for sigmoidal dose response using PRISM software (GraphPAD PRISM) (Table 6).

murine IL13 = biological target: T2, murine IL13 (mouse, UniProt P20109 21-131, limits assumed); test: cell-based or functional assay
T2 sequence (looked up): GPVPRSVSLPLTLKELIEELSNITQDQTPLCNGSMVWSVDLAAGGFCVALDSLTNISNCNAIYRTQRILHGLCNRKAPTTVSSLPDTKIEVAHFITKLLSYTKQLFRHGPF

murine IL4 [7] = biological target: T3, murine IL4 (mouse, UniProt P07750 21-140); test: cell-based or functional assay
T3 sequence (looked up): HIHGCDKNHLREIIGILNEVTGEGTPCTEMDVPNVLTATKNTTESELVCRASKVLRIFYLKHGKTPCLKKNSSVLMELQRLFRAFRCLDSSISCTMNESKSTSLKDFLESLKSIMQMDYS

murine IL4 [8] = biological target: T3, murine IL4; test: affinity for mIL4, method and numbers not given

IC50 STAT6 (human IL4 [1]): 0.0069 nM
Kd (human IL4 [2]): 0.0016 nM
B1: C06_44C12v2 (designed binder)
chain: DLGKKLLEAASAGQDDEVHILMANGADVNALDDSGYTPLHLAAEDGHLEIVEVLLKHGADVNAADRLGDTPLHLAAFVGHLEIVEVLLKAGADVNAVDLAGVTPLHVAAFYGHLEIVEVLLKAGADVNAQDKFGKTAFDISIDNGNEDLAEILQKLN

inhibition of STAT6 (HEK-STAT6 cells), IC50 (human IL4 [3]): 0.003 nM
A549 TARC Inhibition IC50 (human IL4 [4]): 0.174 nM
HEK Stat6 Inhibition IC50 (human IL4 [4]): 0.0014 nM
Type 1 Complex inhibition IC50 (human IL4 [4]): 0.0015 nM
Kd (human IL4 [5]): 0.05 nM
koff (human IL4 [5]): 4.61e-05 s⁻¹
kon (human IL4 [5]): 922000 M⁻¹ s⁻¹
IC50 (human IL4 [6]): 0.0102 nM
B2: C06_28E5 (designed binder)
chain: DLGKKLLEAARAGQDDEVRILMANGADVNAADDSGITPLHLAAEDGHLEIVEVLLKYGADVNAQDNLGDTPLHLAAWTGHLEIVEVLLKNGADVNAYDISGITPLHLAAFYGHLEIVEVLLKHGADVNAQDKFGKTAFDISIDNGNEDLAEILQKLN
notes: ankyrin repeat protein; His-tagged, IMAC-purified; also called benchmark AR protein

IC50 (read off the curve); IL13 STAT6 activation assay, aerosolized sample (triangles) (murine IL13): ~2 nM
IC50 (read off the curve); IL13 STAT6 activation assay, pre-nebulization sample (squares) (murine IL13): ~1 nM
IC50 (read off the curve); IL13 STAT6 activation assay, retentate sample (diamonds) (murine IL13): ~1 nM
IC50 (read off the curve); IL4 dependent HT2 proliferation assay, retentate sample (diamonds, solid line) (murine IL4 [7]): ~0.04 nM
B3: 11G11-21H2 (designed binder)
chain: MRGSHHHHHHGSDLGKKLMEAARAGQDDEVRILMANGADVNAKDLFGITPLHLAAVYGHLEIVEVLLKHGADVNATDNWGSTPLHLAAQFGHLEIVEVLLKYGADVNAQDKFGKTAFDISIDNGNEDLAEILQKLGGGGSGGGGSGGGGSGGGGSRSDLGEKLLEAARAGQDDEVRILMANGADVNAYDDDGMTPLHLAAKSGHLEIVEVLLKHGADVNAMDITGSAPLHLAADLGHLEIVEVLLKHGADVNAIDYLGATPLHLAATYGHPEIVEVLLKYGADVNAQDKFGKTAFDISIDNGNEDLAEILQKLN

binding result (murine IL4 [8]): binds
B4: C06-21H2 (designed binder)
chain: DLGEKLLEAARAGQDDEVRILMANGADVNAYDDDGMTPLHLAAKSGHLEIVEVLLKHGADVNAMDITGSAPLHLAADLGHLEIVEVLLKHGADVNAIDYLGATPLHLAATYGHPEIVEVLLKYGADVNAQDKFGKTAFDISIDNGNEDLAEILQKLN
